Experimental findings from article PMC4785404, “The three-dimensional structure of Clostridium absonum 7α-hydroxysteroid dehydrogenase: new insights into the conserved arginines for NADP(H) recognition” (Scientific Reports, 2016) are described below.

In general, kcat refers to the number of substrate molecules converted per active site and unit of time at saturation. One may read the kcat/Km as the second-order rate constant that governs catalysis at low substrate concentration. Broadly, the stoichiometry N is the number of molecules, sites or subunits per partner or assembly.

Values joined by “and” are separate entries in the source; they are usually repeats but may differ in a detail not shown here. Identical values can stand only once.

The test system of data set [1] is NC(=O)c1ccc[n+]([C@@H]2O[C@H](COP(=O)(O)OP(=O)(O)OC[C@H]3O[C@@H](n4cnc5c(N)ncnc54)[C@H](OP(=O)(O)O)[C@@H]3O)[C@@H](O)[C@H]2O)c1. The data set can be described thus: purified protein. The conditions noted are these: assay conditions by cited earlier methods; co-substrate not given; SD in parentheses; crystal structure of complex with TCDCA also solved; varied: cofactor.

Data set [2] deals with the molecule itself. The data set can be described thus: SEC; purified CA 7α-HSDH in aqueous solution; standard proteins of 669, 440, 158, 75, 44, 29 and 13.7 kDa; the dimer fraction of the first run was collected and run again; the tetramer fractions were checked by MS. On the technique in general: In gel filtration, larger molecules generally elute earlier.

For CA 7α-HSDH (Clostridium sardiniense), in data set [1], the Km is listed as 0.34 (0.01) mM, the kcat stood at 13.8 s⁻¹ and the kcat/Km worked out at 40100 M⁻¹ s⁻¹.

B1: 7α-hydroxysteroid dehydrogenase from Clostridium absonum (enzyme, UniProt G9FRD7 1-262, looked up)
chain: MKRLEGKVAIVTSSTRGIGRASAEALAKEGALVYLAARSEELANEVIADIKKQGGVAKFVYFNAREEETYTSMVEKVAEAEGRIDILVNNYGGTNVNLDKNLTAGDTDEFFRILKDNVQSVYLPAKAAIPHMEKVGGGSIVNISTIGSVVPDISRIAYCVSKSAINSLTQNIALQYARKNIRCNAVLPGLIGTRAALENMTDEFRDSFLGHVPLNRVGRPEDIANAVLYYASDDSGYVTGMIHEVAGGFALGTPQYSEYCPR
notes: 7α-hydroxysteroid dehydrogenase (CA 7α-HSDH), Clostridium absonum; the gene was cloned into pGEX-6p-1; Crystallised with NADP+ and TCDCA; also called CA 7α-HSDH; 7α-HSDH; source: E. coli BL21 (DE3), GST-fused from pGEX-6p-1, purified (monoQ, superdex 75)
Turning to B1, the “stoichiometry N” value in data set [2] was 2 and 4.
